B1: TPRG1 (parent)
chain: ETIQGFWLLTKIDHWNNEKERILL
B2: ETS1 (parent)
chain: YVRDRADLNKDKPVIPAAALAGYT

Variants of: B1
Experiment: protein stability index of a GFP-peptide fusion (GPS, HEK-293T) (PSI 1-6); higher = more stable
Settings: c terminus: a fixed tail appended
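Further: lentivirally expressed fusions sorted by FACS into six bins by GFP to DsRed ratio, PSI derived from sequencing read proportions per bin multiplied by bin number.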

Variant	protein stability index
ETIQCFWLLTKIDHWNNEKERILL [G5C]	3.97
ETIQPFWLLTKIDHWNNEKERILL [G5P]	2.33
ETIQIFWLLTKIDHWNNEKERILL [G5I]	1.69
ETIQGFWLITKIDHWNNEKERILL [L9I]	3
ETIQGFWLLTKIDHWNVEKERILL [N17V]	3.23
ETIQGFWLLTKIDHWNYEKERILL [N17Y]	3.59
ETIQGFWLLTKIDIWNNEKERILL [H14I]	2.49
ETIQGFWLLTKIDWWNNEKERILL [H14W]	2.98
ETIQGFWRLTKIDHWNNEKERILL [L8R]	2.26
ETIQGFWLLTKIDHWNNEKERLLL [I22L]	3.26
ETIQGFWLLTKIDHWNNEKERKLL [I22K]	2.15
ETIQGFWLLTKIDHWNNEKERGLL [I22G]	1.89
ETIQGFWLLTKIDHWNNEKERFLL [I22F]	3.5
ETIQGFWLLTKIDHWKNEKERILL [N16K]	4.29
ETIQGFWLLTKIDHWSNEKERILL [N16S]	2.12
ETIQGFWLLTKIDHWNNEKERITL [L23T]	2.42
ETIQGFWLLTKIDHWNNEKERIAL [L23A]	2.89
ETIQGFWLLTKIDHWNNEKERISL [L23S]	3.2
ETIQGGWLLTKIDHWNNEKERILL [F6G]	1.97
ETIQGSWLLTKIDHWNNEKERILL [F6S]	2.37
ETIQGWWLLTKIDHWNNEKERILL [F6W]	1.12
ETIQGFWLLDKIDHWNNEKERILL [T10D]	1.8
ETIQGFWLLTDIDHWNNEKERILL [K11D]	1.93
ETIQGFWLLTIIDHWNNEKERILL [K11I]	2.32
ETIQGFWLLTYIDHWNNEKERILL [K11Y]	4.47

Variant	protein stability index
ETIQGFWLLTPIDHWNNEKERILL [K11P]	2.92
ETIQGFGLLTKIDHWNNEKERILL [W7G]	2.31
ETIQGFPLLTKIDHWNNEKERILL [W7P]	2.56
ETIQGFTLLTKIDHWNNEKERILL [W7T]	1.51
ETIQGFWLLTKIDHWNNEKEHILL [R21H]	2.66
ETIEGFWLLTKIDHWNNEKERILL [Q4E]	2.23
ETIHGFWLLTKIDHWNNEKERILL [Q4H]	1.97
ETIDGFWLLTKIDHWNNEKERILL [Q4D]	3.98
ETIGGFWLLTKIDHWNNEKERILL [Q4G]	2.68
ETIQGFWLLTKIDHENNEKERILL [W15E]	2.05
ETIQGFWLLTKIDHNNNEKERILL [W15N]	1.57
ETIQGFWLLTKIDHGNNEKERILL [W15G]	4.15
ETIQGFWLLTKIDHDNNEKERILL [W15D]	1.62
ETIQGFWLLTKIDHRNNEKERILL [W15R]	3.5
EKIQGFWLLTKIDHWNNEKERILL [T2K]	2.22
PTIQGFWLLTKIDHWNNEKERILL [E1P]	2.65
ETQQGFWLLTKIDHWNNEKERILL [I3Q]	1.99
ETCQGFWLLTKIDHWNNEKERILL [I3C]	2.25
ETIQGFWLLTKIDHWNNERERILL [K19R]	4.12
ETIQGFWLLTKIDHWNNEQERILL [K19Q]	1.52
ETIQGFWLLTKIDHWNNELERILL [K19L]	2.92
ETIQGFWLLTKIDHWNNEVERILL [K19V]	1.62
ETIQGFWLLTKIKHWNNEKERILL [D13K]	3.06
ETIQGFWLLTKIIHWNNEKERILL [D13I]	3.03

Variants of: B2
Experiment: as above
Settings: c terminus: a fixed tail appended

Variant	protein stability index
YVRDRADDNKDKPVIPAAALAGYT [L8D]	1.67
YVRDRADENKDKPVIPAAALAGYT [L8E]	2.11
YVRDRADCNKDKPVIPAAALAGYT [L8C]	1.96
YVRDRADGNKDKPVIPAAALAGYT [L8G]	2.12
YVRDRADANKDKPVIPAAALAGYT [L8A]	2.17
YVRDRADFNKDKPVIPAAALAGYT [L8F]	2.72
YVRDRADHNKDKPVIPAAALAGYT [L8H]	2.29
YVQDRADLNKDKPVIPAAALAGYT [R3Q]	2.08
YVEDRADLNKDKPVIPAAALAGYT [R3E]	2.76
YVIDRADLNKDKPVIPAAALAGYT [R3I]	1.66
YVGDRADLNKDKPVIPAAALAGYT [R3G]	2.08
YVHDRADLNKDKPVIPAAALAGYT [R3H]	1.77
YVNDRADLNKDKPVIPAAALAGYT [R3N]	2.43
YVWDRADLNKDKPVIPAAALAGYT [R3W]	1.68
YVYDRADLNKDKPVIPAAALAGYT [R3Y]	2.54
YVADRADLNKDKPVIPAAALAGYT [R3A]	2.24
YVVDRADLNKDKPVIPAAALAGYT [R3V]	1.55
YVMDRADLNKDKPVIPAAALAGYT [R3M]	1.52
YVFDRADLNKDKPVIPAAALAGYT [R3F]	2.33
YVDDRADLNKDKPVIPAAALAGYT [R3D]	2.88
YVTDRADLNKDKPVIPAAALAGYT [R3T]	2.3
YVCDRADLNKDKPVIPAAALAGYT [R3C]	1.75
YVSDRADLNKDKPVIPAAALAGYT [R3S]	2.12

Variant	protein stability index
YVPDRADLNKDKPVIPAAALAGYT [R3P]	2.43
YVKDRADLNKDKPVIPAAALAGYT [R3K]	2.56
YVLDRADLNKDKPVIPAAALAGYT [R3L]	1.55
YVRDRAGLNKDKPVIPAAALAGYT [D7G]	2.56
YVRDRAHLNKDKPVIPAAALAGYT [D7H]	2.91
YVRDRAPLNKDKPVIPAAALAGYT [D7P]	3.16
YVRDRASLNKDKPVIPAAALAGYT [D7S]	1.72
YVRDRATLNKDKPVIPAAALAGYT [D7T]	3.92
YVRDRAILNKDKPVIPAAALAGYT [D7I]	3.04
YVRDRAYLNKDKPVIPAAALAGYT [D7Y]	2.37
YVRDRAKLNKDKPVIPAAALAGYT [D7K]	2.99
YVRDRAMLNKDKPVIPAAALAGYT [D7M]	2.6
YVRDRAALNKDKPVIPAAALAGYT [D7A]	2.05
YVRDRAQLNKDKPVIPAAALAGYT [D7Q]	2.77
YVRDRAVLNKDKPVIPAAALAGYT [D7V]	3.53
YVRDRARLNKDKPVIPAAALAGYT [D7R]	3.02
YVRDRAFLNKDKPVIPAAALAGYT [D7F]	2.17
YVRDRACLNKDKPVIPAAALAGYT [D7C]	2.17
YVRDRAWLNKDKPVIPAAALAGYT [D7W]	2.52
YVRDRANLNKDKPVIPAAALAGYT [D7N]	2.98
YVRDRAELNKDKPVIPAAALAGYT [D7E]	2.37
YVRDRALLNKDKPVIPAAALAGYT [D7L]	2.51

— the supplement of paper PMC10567573
